Test results: paper PMC9712106

B1: anti-PfPTRAMP nanobody H8 (VHH)
VHH: QVQLQESGGGLVQPGGSLRLSCAASGFTFSSYWMYWVRQAPGKGLEWVSAINTGGGSTAYADSVKGRFTISRDNAKNTLYLQMNSLKSDDTAVYYCVKARGSSWSDRVFDYWGQGTQVTVSS
B2: anti-PfPTRAMP nanobody H10 (VHH)
VHH: QVQLQESGGGLVQPGGSLRLSCAASGFTFDNYWMYWVRQAPGKGLEWVSAINTVGSHTYYADSVKGRFTISRDNAKNTLYLQMNSLKSEDTAVYYCAKGPWGFGTSGWGEMDYWGKGTQVTVSS

Key:
[1] = biological target: PfPTRAMP (42-309) with a C-terminal Avitag, biotinylated (Plasmodium falciparum); assay: BLI; biotinylated PfPTRAMP or PTRAMP-CSS immobilised on High Precision Streptavidin (SAX) biosensors; twofold dilution series of anti-PfPTRAMP nanobody; 25 °C; kinetics buffer (PBS pH 7.4, 0.1% BSA, 0.02% Tween-20); 1:1 model; mean of two independent experiments
[2] = biological target: biotinylated PTRAMP-CSS heterodimer: PfPTRAMP (42-309) with C-terminal Avitag, with PfCSS (20-290) (Plasmodium falciparum); assay: as above

| Binder | Kd [1] [nM] | koff [1] [s⁻¹] | kon [1] [M⁻¹ s⁻¹] | Kd [2] [nM] | koff [2] [s⁻¹] | kon [2] [M⁻¹ s⁻¹] |
| --- | --- | --- | --- | --- | --- | --- |
| B1 | 400 | 0.25 | 620000 | 410 | 0.25 | 790000 |
| B2 | 530 | 0.088 | 170000 | 390 | 0.077 | 200000 |
